Target: T1, Gdi1 (yeast, UniProt P39958 1-451)
T1 sequence (looked up): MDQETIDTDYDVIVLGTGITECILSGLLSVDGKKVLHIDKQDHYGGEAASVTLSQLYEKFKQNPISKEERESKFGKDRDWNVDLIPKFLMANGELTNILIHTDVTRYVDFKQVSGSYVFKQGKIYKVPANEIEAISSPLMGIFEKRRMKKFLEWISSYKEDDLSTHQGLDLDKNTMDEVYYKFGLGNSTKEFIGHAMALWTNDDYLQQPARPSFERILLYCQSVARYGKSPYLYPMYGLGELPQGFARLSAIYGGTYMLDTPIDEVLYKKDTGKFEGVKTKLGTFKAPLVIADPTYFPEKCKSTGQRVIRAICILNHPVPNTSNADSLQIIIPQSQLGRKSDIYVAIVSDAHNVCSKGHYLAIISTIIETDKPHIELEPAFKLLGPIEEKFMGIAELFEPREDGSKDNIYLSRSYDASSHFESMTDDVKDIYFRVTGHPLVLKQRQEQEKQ
Assay: SEC

binding result: binds
B1: prenylated Rab6-mantGDP (natural protein, S. cerevisiae, UniProt Q99260 1-215, looked up)
chain: MSRSGKSLTKYKIVFLGEQGVGKTSLITRFMYDTFDDHYQATIGIDFLSKTMYLDDKTIRLQLWDTAGQERFRSLIPSYIRDSRVAIIVYDITKRKSFEYIDKWIEDVKNERGDENVILCIVGNKSDLSDERQISTEEGEKKAKLLGAKIFMETSTKAGYNVKALFKKIAKSLPEFQNSESTPLDSENANSANQNKPGVIDISTAEEQEQSACQC
modifications: C-terminal cysteines prenylated (geranylgeranyl)

Reference: publication PMC11618376 (Nature Communications, 2024)
